Laboratory results published in patent US20020123623.

Test system: T1, Ntlim1 (effector plasmid, BY-2 protoplasts) (Nicotiana tabacum)
T1 sequence: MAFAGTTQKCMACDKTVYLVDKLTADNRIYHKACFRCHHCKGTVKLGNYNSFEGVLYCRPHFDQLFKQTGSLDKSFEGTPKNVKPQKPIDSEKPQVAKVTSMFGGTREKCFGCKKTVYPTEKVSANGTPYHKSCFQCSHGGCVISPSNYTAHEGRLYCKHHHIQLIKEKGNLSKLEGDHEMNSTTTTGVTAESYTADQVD
Test: cell_activity
Conditions: about three times GUS expression vs reporter alone in tobacco BY-2 protoplasts; direct binding not measured

CCACTTGAGTAC (double strand)
activity: 3 fold
